Test results reported in patent publication US20210130436A1 (published 2021).

How the values were obtained:
[1] = target: T1, CD28 (endogenously expressed on Jurkat/IL2 reporter cells) (human, UniProt P10747 19-220); experiment: flow cytometry MFI at 33.3 nM relative to WT CD80 ECD-Fc (R&D), Jurkat cells
T1 construct: Endogenous CD28 of Jurkat cells; also called human CD28

[2] = target: T2, human PD-L1 (full-length, expressed on CHO cells) (human, UniProt Q9NZQ7 19-290); experiment: flow cytometry, MFI on CHO/huPD-L1 cells over MFI on Jurkat (CD28) cells, 33.3 nM
T2 construct: also called huPD-L1; CD274
T2 sequence (Q9NZQ7 19-290): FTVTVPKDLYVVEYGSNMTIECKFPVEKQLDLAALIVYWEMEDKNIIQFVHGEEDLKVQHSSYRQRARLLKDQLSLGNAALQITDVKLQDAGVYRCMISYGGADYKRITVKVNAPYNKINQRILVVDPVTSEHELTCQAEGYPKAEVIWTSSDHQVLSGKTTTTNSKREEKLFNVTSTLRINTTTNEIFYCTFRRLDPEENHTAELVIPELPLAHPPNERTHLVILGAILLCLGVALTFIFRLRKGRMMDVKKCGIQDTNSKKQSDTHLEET

[3] = target: T3, human CTLA4 (full-length, expressed on CHO cells) (human, UniProt P16410 36-223); experiment: flow cytometry MFI at 33.3 nM relative to WT CD80 ECD-Fc (R&D), CHO/huCTLA4 cells
T3 construct: also called huCTLA4
T3 sequence (P16410 36-223): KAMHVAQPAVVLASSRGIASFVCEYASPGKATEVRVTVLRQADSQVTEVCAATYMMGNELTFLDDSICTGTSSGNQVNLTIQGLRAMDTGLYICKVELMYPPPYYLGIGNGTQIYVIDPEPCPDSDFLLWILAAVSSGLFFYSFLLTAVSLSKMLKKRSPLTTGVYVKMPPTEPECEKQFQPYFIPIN

[4] = target: T1, CD28 (endogenously expressed on …); experiment: flow cytometry, Jurkat/IL2 reporter cells (endogenous CD28), PE anti-human Fc
[5] = target: T2, human PD-L1 (full-length, expressed on …); experiment: flow cytometry, CHO cells expressing huPD-L1, PE anti-human Fc
[6] = target: T2, human PD-L1 (full-length, expressed on …); experiment: flow cytometry MFI at 33.3 nM relative to WT CD80 ECD-Fc (R&D), CHO/huPD-L1 cells
[7] = target: T3, human CTLA4 (full-length, expressed on …); experiment: flow cytometry, CHO cells expressing huCTLA4, PE anti-human Fc

Binder	Fold change to WT [1]	Ratio of PDL1:CD28 [2]	Fold change to WT CD80 [3]	MFI at 33.3 nM [4]	MFI at 33.3 nM [5]	Fold change to WT [6]	MFI at 33.3 nM [7]
variant CD80 IgV-Fc Q33L/E35D/M47V/L85Q (Fc fusion, not shown: a dimerising Fc or GST) VIHVTKEVKEVATLSCGHNVSVEELAQTRIYWLKDKKMVLTMMSGDVNIWPEYKNRTIFDITNNLSIVILALRPSDEGTYECVVQKYEKDAFKREHLAEVTLSVKAD	0.04 fold	177 ratio	0.42 fold	268 MFI	47400 MFI	5.97 fold	75400 MFI
variant CD80 IgV-Fc Q27H/Q33L/E35D/M47V/N55D/L85Q/K89N (Fc fusion, not shown: a dimerising Fc or GST) VIHVTKEVKEVATLSCGHNVSVEELAHTRIYWLKDKKMVLTMMSGDVNIWPEYKDRTIFDITNNLSIVILALRPSDEGTYECVVQKYENDAFKREHLAEVTLSVKAD	0.04 fold	55 ratio	0.31 fold	269 MFI	14800 MFI	1.86 fold	56100 MFI
variant CD80 IgV-Fc A26E/Q33R/E35D/M47L/L85Q (Fc fusion, not shown: a dimerising Fc or GST) VIHVTKEVKEVATLSCGHNVSVEELEQTRIYWRKDKKMVLTMMSGDLNIWPEYKNRTIFDITNNLSIVILALRPSDEGTYECVVQKYEKDAFKREHLAEVTLSVKAD	0.03 fold	309 ratio	0.01 fold	264 MFI	81500 MFI	10.3 fold	1280 MFI
variant CD80 IgV-Fc E35D/M47I/E77A/L85Q/R94W (Fc fusion, not shown: a dimerising Fc or GST) VIHVTKEVKEVATLSCGHNVSVEELAQTRIYWQKDKKMVLTMMSGDINIWPEYKNRTIFDITNNLSIVILALRPSDAGTYECVVQKYEKDAFKWEHLAEVTLSVKAD	0.04 fold	238 ratio	1.38 fold	272 MFI	64500 MFI	8.12 fold	247000 MFI
variant CD80 IgV-Fc A26E/Q33L/E35D/M47L/L85Q (Fc fusion, not shown: a dimerising Fc or GST) VIHVTKEVKEVATLSCGHNVSVEELEQTRIYWLKDKKMVLTMMSGDLNIWPEYKNRTIFDITNNLSIVILALRPSDEGTYECVVQKYEKDAFKREHLAEVTLSVKAD	0.04 fold	229 ratio	0.01 fold	274 MFI	62700 MFI	7.89 fold	1170 MFI
variant CD80 IgV-Fc Q33L/E35D/T41S/M43I (Fc fusion, not shown: a dimerising Fc or GST) VIHVTKEVKEVATLSCGHNVSVEELAQTRIYWLKDKKMVLSMISGDMNIWPEYKNRTIFDITNNLSIVILALRPSDEGTYECVVLKYEKDAFKREHLAEVTLSVKAD		104 ratio	0.04 fold		44900 MFI	5.66 fold	6390 MFI
variant CD80 IgV-Fc A26E/Q33L/E35D/M47L (Fc fusion, not shown: a dimerising Fc or GST) VIHVTKEVKEVATLSCGHNVSVEELEQTRIYWLKDKKMVLTMMSGDLNIWPEYKNRTIFDITNNLSIVILALRPSDEGTYECVVLKYEKDAFKREHLAEVTLSVKAD	0.04 fold	225 ratio	0.01 fold	271 MFI	60900 MFI	7.67 fold	1320 MFI
variant CD80 IgV-Fc H18Y/A26E/Q33L/E35D/M47L/L85Q (Fc fusion, not shown: a dimerising Fc or GST) VIHVTKEVKEVATLSCGYNVSVEELEQTRIYWLKDKKMVLTMMSGDLNIWPEYKNRTIFDITNNLSIVILALRPSDEGTYECVVQKYEKDAFKREHLAEVTLSVKAD	0.04 fold	282 ratio	0.01 fold	272 MFI	76600 MFI	9.64 fold	2090 MFI

Other lines, results leading:

Fold change to WT [1]	Ratio of PDL1:CD28 [2]	Fold change to WT CD80 [3]	MFI at 33.3 nM [4]	MFI at 33.3 nM [5]	Fold change to WT [6]	MFI at 33.3 nM [7]	Binder
0.03 fold	463 ratio	0.02 fold	260 MFI	121000 MFI	15.2 fold	2880 MFI	variant CD80 IgV-Fc H18Y/V20A/Q33L/E35D/M47V/Y53F (Fc fusion, not shown: a dimerising Fc or GST) VIHVTKEVKEVATLSCGYNASVEELAQTRIYWLKDKKMVLTMMSGDVNIWPEFKNRTIFDITNNLSIVILALRPSDEGTYECVVLKYEKDAFKREHLAEVTLSVKAD
0.03 fold	262 ratio	1.56 fold	260 MFI	68100 MFI	8.57 fold	278000 MFI	variant CD80 IgV-Fc A26E/E35D/M43T/M47L/L85Q/R94Q (Fc fusion, not shown: a dimerising Fc or GST) VIHVTKEVKEVATLSCGHNVSVEELEQTRIYWQKDKKMVLTMTSGDLNIWPEYKNRTIFDITNNLSIVILALRPSDEGTYECVVQKYEKDAFKQEHLAEVTLSVKAD
0.04 fold	162 ratio	0.03 fold	295 MFI	47800 MFI	6.02 fold	5540 MFI	variant CD80 IgV-Fc H18Y/Q33L/E35D/M47I (Fc fusion, not shown: a dimerising Fc or GST) VIHVTKEVKEVATLSCGYNVSVEELAQTRIYWLKDKKMVLTMMSGDINIWPEYKNRTIFDITNNLSIVILALRPSDEGTYECVVLKYEKDAFKREHLAEVTLSVKAD
0.04 fold	276 ratio	0.01 fold	275 MFI	76000 MFI	9.56 fold	1280 MFI	variant CD80 IgV-Fc A26E/Q33R/E35D/M47L/L85Q/K86E (Fc fusion, not shown: a dimerising Fc or GST, Fc fusions are described in general as dimers) VIHVTKEVKEVATLSCGHNVSVEELEQTRIYWRKDKKMVLTMMSGDLNIWPEYKNRTIFDITNNLSIVILALRPSDEGTYECVVQEYEKDAFKREHLAEVTLSVKAD
0.66 fold	9 ratio	1.59 fold	5070 MFI	44200 MFI	5.56 fold	284000 MFI	variant CD80 IgV-Fc H18Y/E35D/M47L (Fc fusion, not shown: a dimerising Fc or GST) VIHVTKEVKEVATLSCGYNVSVEELAQTRIYWQKDKKMVLTMMSGDLNIWPEYKNRTIFDITNNLSIVILALRPSDEGTYECVVLKYEKDAFKREHLAEVTLSVKAD
0.08 fold	51 ratio	1.88 fold	646 MFI	33200 MFI	4.18 fold	336000 MFI	variant CD80 IgV-Fc E35D/M47L/L85Q (Fc fusion, not shown: a dimerising Fc or GST) VIHVTKEVKEVATLSCGHNVSVEELAQTRIYWQKDKKMVLTMMSGDLNIWPEYKNRTIFDITNNLSIVILALRPSDEGTYECVVQKYEKDAFKREHLAEVTLSVKAD
0.04 fold	222 ratio	0.11 fold	287 MFI	63900 MFI	8.05 fold	20500 MFI	variant CD80 IgV-Fc Q33L/E35D/M47I/L85Q (Fc fusion, not shown: a dimerising Fc or GST) VIHVTKEVKEVATLSCGHNVSVEELAQTRIYWLKDKKMVLTMMSGDINIWPEYKNRTIFDITNNLSIVILALRPSDEGTYECVVQKYEKDAFKREHLAEVTLSVKAD
0.04 fold	54 ratio	1.52 fold	273 MFI	14600 MFI	1.84 fold	271000 MFI	variant CD80 IgV-Fc E7D/E35D/M47I/L97Q (Fc fusion, not shown: a dimerising Fc or GST) VIHVTKDVKEVATLSCGHNVSVEELAQTRIYWQKDKKMVLTMMSGDINIWPEYKNRTIFDITNNLSIVILALRPSDEGTYECVVLKYEKDAFKREHQAEVTLSVKAD
0.04 fold	275 ratio	0.02 fold	274 MFI	75500 MFI	9.51 fold	3640 MFI	variant CD80 IgV-Fc V22A/E23D/Q33L/E35D/M47V (Fc fusion, not shown: a dimerising Fc or GST) VIHVTKEVKEVATLSCGHNVSADELAQTRIYWLKDKKMVLTMMSGDVNIWPEYKNRTIFDITNNLSIVILALRPSDEGTYECVVLKYEKDAFKREHLAEVTLSVKAD
0.04 fold	256 ratio	0.01 fold	284 MFI	72600 MFI	9.14 fold	1660 MFI	variant CD80 IgV-Fc Q33L/E35D/M47I/T62N/L85Q (Fc fusion, not shown: a dimerising Fc or GST) VIHVTKEVKEVATLSCGHNVSVEELAQTRIYWLKDKKMVLTMMSGDINIWPEYKNRTIFDINNNLSIVILALRPSDEGTYECVVQKYEKDAFKREHLAEVTLSVKAD
0.04 fold	140 ratio	0.01 fold	278 MFI	38900 MFI	4.9 fold	1100 MFI	variant CD80 IgV-Fc Y31S/E35D/M47L/T79L/E88G (Fc fusion, not shown: a dimerising Fc or GST) VIHVTKEVKEVATLSCGHNVSVEELAQTRISWQKDKKMVLTMMSGDLNIWPEYKNRTIFDITNNLSIVILALRPSDEGLYECVVLKYGKDAFKREHLAEVTLSVKAD
